According to PMC12534507:

Tests used:
[1] = target: truncated human Derlin-1 (Derlin-1^Δ215-239) (human) (UniProt Q9BUN8); assay: cryo-EM structure
[2] = target: wild-type C-terminally Strep-tagged Derlin-1 (human) (UniProt Q9BUN8); assay: cross-linking

| Substance | stoichiometry N [1] | stoichiometry N [2] |
| --- | --- | --- |
| truncated human Derlin-1 (Derlin-1^Δ215-239) (from UniProt Q9BUN8) (natural protein) | 6 |  |
| wild-type C-terminally Strep-tagged Derlin-1 (from UniProt Q9BUN8 1-251) (natural protein) |  | 2 |
